{
  "source": "patent US20260108496A1",
  "about": "“METHODS FOR REPROGRAMING EXHAUSTED T CELLS AND BOOSTING IMMUNE CHECKPOINT BLOCKADE THERAPY FOR CANCER” (Ohio State Innovation Foundation, priority 2022, published 2026)",
  "molecules": {"B1": {"name": "BMP4: natural BMP ligand, bone morphogenic protein 4 (protein, UniProt P12644 293-408, looked up)", "Bone morphogenetic protein 4": "SPKHHSQRARKKNKNCRRHSLYVDFSDVGWNDWIVAPPGYQAFYCHGDCPFPLADHLNSTNHAIVQTLVNSVNSSIPKACCVPTELSAISMLYLDEYDKVVLKNYQEMVVEGCGCR", "modifications": "Bone morphogenetic protein 4"}, "B2": {"name": "BMP6: natural BMP ligand (protein, UniProt P22004 375-513, looked up)", "Bone morphogenetic protein 6": "SASSRRRQQSRNRSTQSQDVARVSSASDYNSSELKTACRKHELYVSFQDLGWQDWIIAPKGYAANYCDGECSFPLNAHMNATNHAIVQTLVHLMNPEYVPKPCCAPTKLNAISVLYFDDNSNVILKKYRNMVVRACGCH", "modifications": "Bone morphogenetic protein 6", "notes": "natural BMP ligand"}, "B3": {"name": "BMP10: natural BMP ligand (protein, UniProt O95393 317-424, looked up)", "Bone morphogenetic protein 10": "NAKGNYCKRTPLYIDFKEIGWDSWIIAPPGYEAYECRGVCNYPLAEHLTPTKHAIIQALVHLKNSQKASKACCVPTKLEPISILYLDKGVVTYKFKYEGMAVSECGCR"}, "B4": {"name": "BMP14: BMP ligand (protein, UniProt P43026 382-501, looked up)", "Growth/differentiation factor …": "APLATRQGKRPSKNLKARCSRKALHVNFKDMGWDDWIIAPLEYEAFHCEGLCEFPLRSHLEPTNHAVIQTLMNSMDPESTPPTCCVPTRLSPISILFIDSANNVVYKQYEDMVVESCGCR", "modifications": "Growth/differentiation factor 5", "notes": "BMP ligand"}, "B5": {"name": "BMP12: BMP ligand (protein, UniProt Q7Z4P5 322-450, looked up)", "Growth/differentiation factor …": "TALAGTRTAQGSGGGAGRGHGRRGRSRCSRKPLHVDFKELGWDDWIIAPLDYEAYHCEGLCDFPLRSHLEPTNHAIIQTLLNSMAPDAAPASCCVPARLSPISILYIDAANNVVYKQYEDMVVEACGCR"}},
  "key": {"[1]": {"tested_on": "P14 CD8 T cells", "test": "in-vitro co-culture of P14 CD8 T cells with CT2A-gp33 tumor cells (Example 1)", "type": "cell-based, mouse", "details": "P14 cells", "description": "To study their epigenetic (re)programming, we developed a novel in-vitro model of CD8 T cell exhaustion. First, we optimized conditions for in-vitro co-culture of gp33-expressing murine brain tumor cells (CT2A-gp33) and TCR transgenic gp33-specific CD8 T cells (P14 cells). We were able to enforce differentiation of anti-tumor CD8 T cells under their persistent TCR stimulation by repeated exposure to the tumor antigen and tumor-derived factors, such as TGFβ1. […] However, with prolonged exposure to the tumor antigen, the effector CD8 T cells progressively lose cytokine production and tumor killing activity (FIGS. 8A, 8B, and 8C).\nTo assess the impact of TGFβ1 signaling on the progression of CD8 T cells toward dysfunction, we treated co-cultures with TGFβ1 or RepSox (also known as E-616452) (2-(3-(6-Methylpyridine-2-yl)-1H-pyrazol-4-yl)-1,5-naphthyridine) as shown in the formula: […]\nRepSox is a potent selective inhibitor of the TGFβ type 1 receptor (ALK5)—for 11 days after effector differentiation was complete (day 6).\nWe also examined the impact of BMP-2/4 signaling on RepSox-treated P14 CD8 T cells. […] Taken together, our findings indicate that TGFβ1-signaling not only accelerates the development of T cell dysfunction, but also maintains silencing of lymphoid homing markers on CD8 T cells. Importantly, our findings support the feasibility of using this novel in-vitro model as a tractable tool that can guide our in-vivo work by providing first-line mechanistic studies."}, "[2]": {"tested_on": "human CD8+ T cells", "test": "chronic TCR stimulation of human CBMCs in the presence of TGFβ1", "type": "cell-based", "description": "For “Weak TCR” stimulation, 30 ng/ml of purified monoclonal anti-human CD3 (clone: OKT3; BioLegend) was continuously added onto the seeded CBMCs to provide TCR stimulation plus natural costimulation via CD80/CD86 on Fc-expressing CBMCs that survive in the first few days. For “Strong TCR” stimulation setting, flat-bottom plates were coated with purified monoclonal anti-human CD3 (5 ug/ml) and anti-human CD28 (1 ug/ml) (clone: CD28.2; BioLegend) at 4° C. overnight, then CMBCs were isolated and seeded in complete T cell medium as described above on day 0. On day 7, viable CD8+ T cells were FACS-purified using the Sony MA900 cell sorter. Purified CD8+ T cells were then continuously stimulated in plates coated with anti-CD3 only (5 ug/ml). Media was replenished every 2-3 days, and cells were incubated at 37 C and 5% CO2 throughout the duration of the experiment. Human TGFβ1 (5 ng/ml, Peprotech) was added to the media starting on day 7. Treatment with RepSox (25 μM) and SB4 (10 μM) (MedChemExpress LLC) or vehicle control (DMSO, ThermoFisher) were added to the media starting on day 14 or 21. Vitamin C (100 μM, MedChemExpress LLC) was added to the media starting on day 21. For the acute TCR stimulation condition, anti-CD3 was no longer added to the media starting on day 7. […]"}, "[3]": {"tested_on": "adult CD8+ T cells", "test": "chronic TCR plus TGFβ1 stimulation of adult CD8+ T cells from healthy blood donors", "type": "cell-based, human", "description": "Isolated adult PBMCs were stained on day 0 for cell sorting of naïve CD8+ T cells (viable CD3+ CD8+ CCR7+ CD45RO−) and viable CD3− PBMCs using the Sony MA900 sorter. The cells were seeded into 96-well U-bottom plate (˜5,000 naïve T cells+45,000 CD3− cells per well) on day 0 with 30 ng/ml of purified anti-human CD3, in complete T cell medium as described above. On day 4, the wells were transferred to a 96-well flat-bottom plate coated with anti-human CD3 and CD28 antibodies as described above, and stimulation was continued for an additional three days. On day 7, the cells were returned to culture with continuous stimulation using soluble anti-CD3 (30 ng/ml) or repeated plate-bound anti-CD3 stimulation through day 28. Media was replenished every 2-3 days. Treatments were added to the media as described above for CBMCs experiments."}, "[4]": {"tested_on": "Dysf. CD8+ T cells", "test": "reprogramming treatment of Dysf. (chronic TCR plus TGFβ1) human CD8+ T cells", "type": "cell-based", "details": "sorted most dysfunctional subset, added to RepSox", "description": "On day 7, viable CD8+ T cells were FACS-purified using the Sony MA900 cell sorter. Purified CD8+ T cells were then continuously stimulated in plates coated with anti-CD3 only (5 ug/ml). Media was replenished every 2-3 days, and cells were incubated at 37 C and 5% CO2 throughout the duration of the experiment. Human TGFβ1 (5 ng/ml, Peprotech) was added to the media starting on day 7. Treatment with RepSox (25 μM) and SB4 (10 μM) (MedChemExpress LLC) or vehicle control (DMSO, ThermoFisher) were added to the media starting on day 14 or 21. Vitamin C (100 μM, MedChemExpress LLC) was added to the media starting on day 21. For the acute TCR stimulation condition, anti-CD3 was no longer added to the media starting on day 7. For recovery experiments in FIG. 16 and FIGS. 22 and 26, CD8+ T cells were rested from TCR stimulation and TGFβ1 starting on day 28 for 7-14 days in T cell media containing recombinant human IL-15 only (10 ng/ml).\nOn days 7, 14, 21, and 28 (and day 35 and 42 for recovery experiments), human CBMCs were stimulated with PMA/Ionomycin (Cell Stimulation Cocktail plus protein transport inhibitors, eBioscience) for 3 hours at 37° C., 5% CO2. Incubation was followed immediately by antibody intracellular staining for flow cytometry.\nHuman CBMCs from ex vivo stimulation experiments (acute or chronic TCR, and chronic TCR+TGFβ1) were labeled with 5(6)-Carboxyfluorescein diacetate N-succinimidyl ester (CFSE) (1 μM, Sigma) by staining in PBS for 7 minutes at room temperature, followed by quenching with 20% FBS. Proliferation was tracked on days 35 and 42 by assessing CFSE fluorescence via flow cytometry. Each peak of CFSE fluorescence signal represents one cell division cycle."}, "[5]": {"tested_on": "human CD8+ T cells", "test": "whole-genome bisulfite sequencing of human CD8+ T cells", "type": "cell-based", "details": "combined with RepSox", "description": "Human CD8+ T cells were sorted on days 0 (naïve), 7, and 28, and genomic DNA was extracted and bisulfite-treated to convert unmethylated cytosine to uracil residues using the EZ DNA Methylation-Direct Kit (Zymo). DNA libraries were prepared using Swift Accel-NGS® D Methyl-Seq DNA Library Kit according to the manufacturer's protocol. The libraries were purified by the AMPureXP Beads followed by QC using Qubit method, and the purified DNA was captured on an Illumina flow cell for cluster generation. Libraries were sequenced on the NovaSeq-S2 platform following the manufacturer's protocols. Sequencing data were aligned to the Hg38 genome using BSMAP. Adapter were trimmed from FASTQ sequences (trimglore) and mapped to the hg38 genome using the BSMAP v. 2.74 software. CpGs were extracted by the methratio.py in the BSMAP package. Differential analysis of CpG methylation among the datasets was determined with a Bayesian hierarchical model to detect regional methylation differences with at least three CpG site. Differentially methylated regions (DMRs) were identified using Bioconductor package DSS and custom R scripts with a threshold of 30% change in methylation ratio and P-value <0.01 with at least 10 reads per CpG site as a cutoff."}, "[6]": {"tested_on": "human CD8 T cells", "test": "treatment of human CD8 T cells with BMP ligands under chronic strong TCR stimulation", "type": "cell-based", "details": "for expression levels of terminal exhaustion-associated molecules (CD39, CD101, CD103): day 21; for frequencies of IFNγ-producing CD8 T cells: days 14 and 21", "description": "BMP ligands can signal through type 1 (BMPR1, ACVR1) or type 2 receptors (BMPR2, ACVR2), which typically form heterotetramers upon ligand binding. Once heterotetramers are activated by ligands, they phosphorylate SMAD1/5/8 that binds to SMAD4 and translocates to nucleus and bind to target genes."}, "[7]": {"tested_on": "SMAD1/5/8 phosphorylation", "details": "cited from earlier work"}, "[8]": {"details": "adult naïve CD8+ T cells, post-effector exposure"}},
  "data": [
    {"molecule": "TGFβ1: Human TGFβ1 cytokine (5 ng/ml, Peprotech)", "values": [
      {"measurement": "production of IFNγ and TNFα", "setting": "[1]; persistent treatment for 11 days from day 6 of co-culture", "result": "accelerated the impairment"},
      {"measurement": "expression of T-bet and Granzyme B", "setting": "[1]; persistent treatment from day 6", "result": "repressed expression"},
      {"measurement": "effector functions in chronically stimulated T cells", "setting": "[2]; TGFβ1 started after effector differentiation (day 7-28)", "result": "significantly reduced"},
      {"measurement": "survival of chronically stimulated CD8+ T cells", "setting": "[2]; strong TCR stimulation", "result": "supported the survival"},
      {"measurement": "expression of dysfunction-associated markers", "setting": "[3]; [8]", "result": "increased expression"},
      {"measurement": "function of chronically stimulated adult CD8+ T cells", "setting": "[3]; [8]", "result": "induced functional impairment"},
      {"measurement": "polyfunctionality", "setting": "[3]; adult polyclonal effector memory (CD45RO+ CCR7−) CD8+ T cells", "result": "did not impact"},
      {"measurement": "CD103 expression", "setting": "[3]; adult polyclonal effector memory CD8+ T cells", "result": "significant upregulation"}
    ]},
    {"molecule": "O=C1O[C@H]([C@@H](O)CO)C(O)=C1O", "note": "[vitamin C]", "values": [
      {"measurement": "effector cytokine production", "setting": "[4]", "result": "further enhanced"},
      {"measurement": "DNA methylation patterns in Dysf. CD8+ T cells", "setting": "[5]", "result": "more pronounced"}
    ]},
    {"molecule": "B1", "values": [
      {"measurement": "numbers of chronically stimulated human CD8 T cells", "setting": "[6]; chronic strong TCR stimulation", "result": "preserved significantly higher numbers"},
      {"measurement": "expression levels of terminal exhaustion-associated molecules (CD39, CD101, CD103)", "setting": "[6]", "result": "downregulated"},
      {"measurement": "frequencies of IFNγ-producing CD8 T cells", "setting": "[6]", "result": "significantly higher frequencies"},
      {"measurement": "activation of SMAD1/5/8 phosphorylation", "setting": "[7]", "result": "strong"}
    ]},
    {"molecule": "B2", "values": [
      {"measurement": "expression levels of terminal exhaustion-associated molecules (CD39, CD101, CD103)", "setting": "[6]", "result": "downregulated"},
      {"measurement": "activation of SMAD1/5/8 phosphorylation", "setting": "[7]", "result": "strong"}
    ]},
    {"molecule": "B3", "values": [
      {"measurement": "expression levels of terminal exhaustion-associated molecules (CD39, CD101, CD103)", "setting": "[6]", "result": "downregulated"},
      {"measurement": "frequencies of IFNγ-producing CD8 T cells", "setting": "[6]", "result": "significantly higher frequencies"},
      {"measurement": "activation of SMAD1/5/8 phosphorylation", "setting": "[7]", "result": "medium or weak"}
    ]},
    {"molecule": "B4", "values": [
      {"measurement": "activation of SMAD1/5/8 phosphorylation", "setting": "[7]", "result": "medium or weak"}
    ]},
    {"molecule": "B5", "values": [
      {"measurement": "activation of SMAD1/5/8 phosphorylation", "setting": "[7]", "result": "medium or weak"}
    ]}
  ]
}
